Results: US20240209084A1 (CYTOARM, published 2024)
Positions count from the first letter of the chain named. One block for each binder: values may come before it.

Tests used:
[1] = target: T1, CD19 (human, UniProt P15391 20-556); assay: flow cytometry on Raji cells (CD19+), FITC goat anti-human IgG Fab
T1 construct: whole, on cells; also called CD19^+ B cell lymphoma (Raji)
T1 sequence (looked up): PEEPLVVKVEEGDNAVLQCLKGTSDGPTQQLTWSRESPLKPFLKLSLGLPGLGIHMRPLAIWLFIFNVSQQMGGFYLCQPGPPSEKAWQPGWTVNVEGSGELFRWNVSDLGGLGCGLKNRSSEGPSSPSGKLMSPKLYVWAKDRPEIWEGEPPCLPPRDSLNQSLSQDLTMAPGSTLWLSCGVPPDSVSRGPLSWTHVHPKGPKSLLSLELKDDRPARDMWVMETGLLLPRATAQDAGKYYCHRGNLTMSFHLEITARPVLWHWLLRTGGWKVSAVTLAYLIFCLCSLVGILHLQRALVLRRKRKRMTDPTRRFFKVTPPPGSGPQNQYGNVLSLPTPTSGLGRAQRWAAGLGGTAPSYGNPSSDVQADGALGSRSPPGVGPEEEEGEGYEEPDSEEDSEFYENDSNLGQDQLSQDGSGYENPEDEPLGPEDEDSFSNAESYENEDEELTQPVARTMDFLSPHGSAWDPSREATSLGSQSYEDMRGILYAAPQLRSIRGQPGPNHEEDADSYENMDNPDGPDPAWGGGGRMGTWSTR
Protocol: (§1) Samples were analyzed with FITC conjugated Goat anti-Human IgG Fab antibody and flow cytometry.

[2] = target: T2, CD47 (human, UniProt Q08722 19-323); assay: flow cytometry on MCF-7/HER2 cells (CD47+), FITC goat anti-human IgG Fab
T2 construct: whole, on cells; also called CD47^+ breast cancer (MCF7/HER2)
Protocol: as §1

[3] = target: T3, HGFR (human, UniProt P08581 25-1390); assay: flow cytometry on A549 cells (HGFR+), FITC goat anti-human IgG Fab
T3 construct: whole, on cells; also called cMET; hepatocyte growth factor receptor
Protocol: as §1

[4] = target: T4, EpCAM (human, UniProt P16422 24-314); assay: flow cytometry on LNCaP cells (EpCAM+), FITC goat anti-human IgG Fab
T4 construct: whole, on cells; also called epithelial cell adhesion molecule; EpCAM^+ prostate cancer (LNCaP)
T4 sequence (looked up): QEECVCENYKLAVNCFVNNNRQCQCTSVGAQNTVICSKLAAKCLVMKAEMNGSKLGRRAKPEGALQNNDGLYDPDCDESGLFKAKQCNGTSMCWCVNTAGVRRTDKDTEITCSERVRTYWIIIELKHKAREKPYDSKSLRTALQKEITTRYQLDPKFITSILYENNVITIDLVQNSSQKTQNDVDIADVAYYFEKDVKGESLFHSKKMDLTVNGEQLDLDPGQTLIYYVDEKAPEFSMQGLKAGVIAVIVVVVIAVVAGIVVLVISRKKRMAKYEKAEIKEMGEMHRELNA
Protocol: as §1

[5] = target: T5, PSMA (human, UniProt Q04609 1-750); assay: flow cytometry on LNCaP cells (PSMA+), FITC goat anti-human IgG Fab
T5 construct: whole, on cells; also called prostate-specific membrane antigen; PSMA^+ Prostate cancer (LNCaP)
Protocol: as §1

[6] = target: T6, CD33 (human, UniProt P20138 18-364); assay: flow cytometry on HL-60 cells (CD33+), FITC goat anti-human IgG Fab
T6 construct: whole, on cells; also called CD33^+ human acute myeloid leukemia (HL-60)
Protocol: as §1

[7] = target: T7, CD3 (human, UniProt P07766 23-207); assay: flow cytometry titration on Jurkat cells (CD3+), FITC goat anti-human IgG Fab
T7 construct: whole, on cells; CD3 is a multi-chain complex; also called CD3 on CD3-positive T cells; CD3^+ T cells (Jurkat)
Protocol: (§2) FIG. 19B: binding activity to CD19⁺ B cells lymphoma (Raji). […] Fluorescent signal on cell surface was detected using flow cytometry.
(§3) Binding abilities of the BsAbs against CD3⁺ T cells (Jurkat) and CD19⁺ B cells lymphoma (Raji) were analyzed using flow cytometry.

[8] = target: T1, CD19; assay: flow cytometry titration on Raji cells (CD19+), FITC goat anti-human IgG Fab
Protocol: as §2, §3

T7 sequence (P07766 23-207): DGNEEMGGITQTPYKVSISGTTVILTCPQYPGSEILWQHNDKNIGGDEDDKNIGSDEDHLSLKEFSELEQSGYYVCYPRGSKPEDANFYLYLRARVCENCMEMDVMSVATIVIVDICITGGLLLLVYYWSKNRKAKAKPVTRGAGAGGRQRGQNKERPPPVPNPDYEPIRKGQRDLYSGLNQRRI
T6 sequence (P20138 18-364): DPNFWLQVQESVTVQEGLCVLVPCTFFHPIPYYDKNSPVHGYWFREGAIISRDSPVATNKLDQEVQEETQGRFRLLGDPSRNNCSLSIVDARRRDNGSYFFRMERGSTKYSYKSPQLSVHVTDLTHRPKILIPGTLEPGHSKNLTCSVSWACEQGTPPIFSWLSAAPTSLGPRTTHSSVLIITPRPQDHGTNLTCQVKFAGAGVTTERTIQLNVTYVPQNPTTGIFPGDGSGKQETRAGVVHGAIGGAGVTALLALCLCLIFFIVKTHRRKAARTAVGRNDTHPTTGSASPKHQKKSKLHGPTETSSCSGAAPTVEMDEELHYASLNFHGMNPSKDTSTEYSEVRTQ
T5 sequence (Q04609 whole entry): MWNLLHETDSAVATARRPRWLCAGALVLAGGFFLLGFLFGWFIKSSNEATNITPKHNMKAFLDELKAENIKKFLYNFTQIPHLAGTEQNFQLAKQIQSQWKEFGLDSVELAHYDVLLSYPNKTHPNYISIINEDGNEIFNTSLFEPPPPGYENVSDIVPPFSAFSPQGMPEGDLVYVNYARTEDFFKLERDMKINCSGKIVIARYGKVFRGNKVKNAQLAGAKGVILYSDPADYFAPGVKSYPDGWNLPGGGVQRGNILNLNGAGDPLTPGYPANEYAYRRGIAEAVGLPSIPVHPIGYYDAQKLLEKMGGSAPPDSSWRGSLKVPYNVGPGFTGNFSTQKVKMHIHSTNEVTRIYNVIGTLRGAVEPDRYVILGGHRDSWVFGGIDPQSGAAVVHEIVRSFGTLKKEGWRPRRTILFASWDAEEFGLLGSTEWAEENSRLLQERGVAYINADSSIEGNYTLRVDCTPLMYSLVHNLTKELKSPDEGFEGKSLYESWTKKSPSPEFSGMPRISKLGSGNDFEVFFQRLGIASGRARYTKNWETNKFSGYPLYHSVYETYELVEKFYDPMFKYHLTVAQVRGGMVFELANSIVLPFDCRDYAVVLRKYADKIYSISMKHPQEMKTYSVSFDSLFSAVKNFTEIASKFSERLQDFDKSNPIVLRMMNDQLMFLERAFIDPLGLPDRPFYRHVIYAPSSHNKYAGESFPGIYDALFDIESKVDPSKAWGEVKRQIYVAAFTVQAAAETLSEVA
T3 sequence (P08581 25-1390): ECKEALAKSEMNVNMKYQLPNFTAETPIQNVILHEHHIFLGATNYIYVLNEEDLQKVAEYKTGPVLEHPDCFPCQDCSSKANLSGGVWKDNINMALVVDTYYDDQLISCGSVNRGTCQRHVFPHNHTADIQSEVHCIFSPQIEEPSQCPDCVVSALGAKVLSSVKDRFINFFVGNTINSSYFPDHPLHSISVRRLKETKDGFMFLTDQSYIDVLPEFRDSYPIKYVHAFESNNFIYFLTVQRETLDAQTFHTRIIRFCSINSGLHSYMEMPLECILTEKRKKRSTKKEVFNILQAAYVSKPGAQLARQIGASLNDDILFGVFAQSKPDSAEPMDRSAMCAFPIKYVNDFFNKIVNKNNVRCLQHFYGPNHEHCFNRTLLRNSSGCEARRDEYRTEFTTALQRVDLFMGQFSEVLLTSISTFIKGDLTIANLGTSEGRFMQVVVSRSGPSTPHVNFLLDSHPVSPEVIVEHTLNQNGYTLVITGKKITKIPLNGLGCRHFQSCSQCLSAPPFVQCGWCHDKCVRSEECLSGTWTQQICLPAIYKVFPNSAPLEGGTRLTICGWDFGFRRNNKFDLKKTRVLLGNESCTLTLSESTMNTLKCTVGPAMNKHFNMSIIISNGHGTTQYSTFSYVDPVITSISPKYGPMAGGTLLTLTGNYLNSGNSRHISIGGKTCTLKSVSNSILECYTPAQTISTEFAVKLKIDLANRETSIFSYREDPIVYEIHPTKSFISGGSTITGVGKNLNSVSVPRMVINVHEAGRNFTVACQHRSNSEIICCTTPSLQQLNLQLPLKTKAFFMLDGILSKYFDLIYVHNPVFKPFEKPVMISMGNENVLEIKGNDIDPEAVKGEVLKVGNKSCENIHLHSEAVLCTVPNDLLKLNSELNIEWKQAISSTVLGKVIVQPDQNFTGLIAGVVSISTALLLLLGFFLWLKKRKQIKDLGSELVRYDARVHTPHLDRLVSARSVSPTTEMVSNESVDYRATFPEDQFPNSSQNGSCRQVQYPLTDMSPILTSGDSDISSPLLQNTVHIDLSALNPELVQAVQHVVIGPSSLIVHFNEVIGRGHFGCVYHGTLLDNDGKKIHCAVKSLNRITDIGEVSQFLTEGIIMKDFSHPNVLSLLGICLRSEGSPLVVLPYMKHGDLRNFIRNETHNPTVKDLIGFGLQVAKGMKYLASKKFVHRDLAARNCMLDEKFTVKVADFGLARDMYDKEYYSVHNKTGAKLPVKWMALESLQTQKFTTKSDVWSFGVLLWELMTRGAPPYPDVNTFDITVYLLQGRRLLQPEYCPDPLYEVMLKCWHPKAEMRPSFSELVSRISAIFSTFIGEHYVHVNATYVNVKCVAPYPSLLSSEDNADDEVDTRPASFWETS

B1: CTA03Fab/CTAT02scFv (bispecific antibody)
heavy: EVQLLESGGGLVQPGGSLRLSCAASGFTFSSFPMAWVRQAPGKGLEWVSTISTSGGRTYYRDSVKGRFTISRDNSKNTLYLQMNSLRAEDTAVYYCAKFRQYSGGFDYWGQGTLVTVSSASTKGPSVFPLAPSSKSTSGGTAALGCLVKDYFPEPVTVSWNSGALTSGVHTFPAVLQSSGLYSLSSVVTVPSSSLGTQTYICNVNHKPSNTKVDKKVEPKSCGGGSGGGEVKLQESGPGLVAPSQSLSVTCTVSGVSLPDYGVSWIRQPPRKGLEWLGVIWGSETTYYNSALKSRLTIIKDNSKSQVFLKMNSLQTDDTAIYYCAKHYYYGGSYAMDYWGQGTSVTVSSGGGGSGGGGSGGGGSDIQMTQTTSSLSASLGDRVTISCRASQDISKYLNWYQQKPDGTVKLLIYHTSRLHSGVPSRFSGSGSGTDYSLTISNLEQEDIATYFCQQGNTLPYTFGGGTKLEIT
light: DIQLTQPNSVSTSLGSTVKLSCTLSSGNIENNYVHWYQLYEGRSPTTMIYDDDKRPDGVPDRFSGSIDRSSNSAFLTIHNVAIEDEAIYFCHSYVSSFNVFGGGTKLTVLRQPKAAPSVTLFPPSSEELQANKATLVCLISDFYPGAVTVAWKADSSPVKAGVETTTPSKQSNNKYAASSYLSLTPEQWKSHRSYSCQVTHEGSTVEKTVAPTECS
notes: also called anti-CD3Fab/anti-CD19scFv; parent CTA03Fab/CTAT02scFv BsAb
binding result [1]: binds

B2: CTA03Fab/CTAT13scFv (bispecific antibody)
heavy: EVQLLESGGGLVQPGGSLRLSCAASGFTFSSFPMAWVRQAPGKGLEWVSTISTSGGRTYYRDSVKGRFTISRDNSKNTLYLQMNSLRAEDTAVYYCAKFRQYSGGFDYWGQGTLVTVSSASTKGPSVFPLAPSSKSTSGGTAALGCLVKDYFPEPVTVSWNSGALTSGVHTFPAVLQSSGLYSLSSVVTVPSSSLGTQTYICNVNHKPSNTKVDKKVEPKSCGGGSGGGQVQLVQSGAEVKKPGASVKVSCKASGYTFTNYNMHWVRQAPGQRLEWMGTIYPGNDDTSYNQKFKDRVTITADTSASTAYMELSSLRSEDTAVYYCARGGYRAMDYWGQGTLVTVSSGGGGSGGGGSGGGGSDIVMTQSPLSLPVTPGEPASISCRSSQSIVYSNGNTYLGWYLQKPGQSPQLLIYKVSNRFSGVPDRFSGSGSGTDFTLKISRVEAEDVGVYYCFQGSHVPYTFGQGTKLEIK
light: B1 light
notes: also called antiCD3Fab/anti-CD47scFv
binding result [2]: binds

B3: CTA03Fab/CTAT12scFv (bispecific antibody)
heavy: EVQLLESGGGLVQPGGSLRLSCAASGFTFSSFPMAWVRQAPGKGLEWVSTISTSGGRTYYRDSVKGRFTISRDNSKNTLYLQMNSLRAEDTAVYYCAKFRQYSGGFDYWGQGTLVTVSSASTKGPSVFPLAPSSKSTSGGTAALGCLVKDYFPEPVTVSWNSGALTSGVHTFPAVLQSSGLYSLSSVVTVPSSSLGTQTYICNVNHKPSNTKVDKKVEPKSCGGGSGGGEVQLVESGGGLVQPGGSLRLSCAASGYTFTSYWLHWVRQAPGKGLEWVGMIDPSNSDTRFNPNFKDRFTISADTSKNTAYLQMNSLRAEDTAVYYCATYRSYVTPLDYWGQGTLVTVSSGGGGSGGGGSGGGGSDIQMTQSPSSLSASVGDRVTITCKSSQSLLYTSSQKNYLAWYQQKPGKAPKLLIYWASTRESGVPSRFSGSGSGTDFTLTISSLQPEDFATYYCQQYYAYPWTFGQGTKVEIK
light: B1 light
notes: also called antiCD3Fab/anti-HGFRscFv
binding result [3]: binds

B6: CTA03Fab/CTAT11scFv (bispecific antibody)
heavy: EVQLLESGGGLVQPGGSLRLSCAASGFTFSSFPMAWVRQAPGKGLEWVSTISTSGGRTYYRDSVKGRFTISRDNSKNTLYLQMNSLRAEDTAVYYCAKFRQYSGGFDYWGQGTLVTVSSASTKGPSVFPLAPSSKSTSGGTAALGCLVKDYFPEPVTVSWNSGALTSGVHTFPAVLQSSGLYSLSSVVTVPSSSLGTQTYICNVNHKPSNTKVDKKVEPKSCGGGSGGGEVQLVQSGAEVKKPGSSVKVSCKASGYTITDSNIHWVRQAPGQSLEWIGYIYPYNGGTDYNQKFKNRATLTVDNPTNTAYMELSSLRSEDTAFYYCVNGNPWLAYWGQGTLVTVSSGGGGSGGGGSGGGGSDIQLTQSPSTLSASVGDRVTITCRASESLDNYGIRFLTWFQQKPGKAPKLLMYAASNQGSGVPSRFSGSGSGTEFTLTISSLQPDDFATYYCQQTKEVPWSFGQGTKVEVK
light: B1 light
notes: also called antiCD3Fab/anti-CD33scFv
binding result [6]: binds

B8: CTA03-02Fab/CTAT02-01scFv (bispecific antibody)
heavy: B1 heavy with G406A
light: B1 light with D57E
notes: also called CTA03Fab(VLD57E)/CTAT02scFv(VLG42A)
binding result [8]: binds

B9: CTA03-01Fab/CTAT02-01scFv (bispecific antibody)
heavy: B1 heavy with G406A
light: B1 light with G58A
notes: also called CTA03Fab(VLG58A)/CTAT02scFv(VLG42A)
binding result [8]: binds

B10: CTA03-01Fab/CTAT02-02scFv (bispecific antibody)
heavy: B1 heavy with D405E
light: B1 light with G58A
notes: also called CTA03Fab(VLG58A)/CTAT02scFv(VLD41E)
EC50 (read off the curve) [8]: ~1 µg/mL

Further lines, results first:

binding result [4]: binds
B4: CTA03Fab/CTAT07scFv (bispecific antibody)
heavy: EVQLLESGGGLVQPGGSLRLSCAASGFTFSSFPMAWVRQAPGKGLEWVSTISTSGGRTYYRDSVKGRFTISRDNSKNTLYLQMNSLRAEDTAVYYCAKFRQYSGGFDYWGQGTLVTVSSASTKGPSVFPLAPSSKSTSGGTAALGCLVKDYFPEPVTVSWNSGALTSGVHTFPAVLQSSGLYSLSSVVTVPSSSLGTQTYICNVNHKPSNTKVDKKVEPKSCGGGSGGGEVQLVQSGPGLVQPGGSVRISCAASGYTFTNYGMNWVKQAPGKGLEWMGWINTYTGESTYADSFKGRFTFSLDTSASAAYLQINSLRAEDTAVYYCARFAIKGDYWGQGTLLTVSSGGGGSGGGGSGGGGSDIQMTQSPSSLSASVGDRVTITCRSTKSLLHSNGITYLYWYQQKPGKAPKLLIYQMSNLASGVPSRFSSSGSGTDFTLTISSLQPEDFATYYCAQNLEIPRTFGQGTKVELK
light: B1 light
notes: also called antiCD3Fab/anti-EpCAMscFv

binding result [5]: binds
B5: CTA03Fab/CTAT05scFv (bispecific antibody)
heavy: EVQLLESGGGLVQPGGSLRLSCAASGFTFSSFPMAWVRQAPGKGLEWVSTISTSGGRTYYRDSVKGRFTISRDNSKNTLYLQMNSLRAEDTAVYYCAKFRQYSGGFDYWGQGTLVTVSSASTKGPSVFPLAPSSKSTSGGTAALGCLVKDYFPEPVTVSWNSGALTSGVHTFPAVLQSSGLYSLSSVVTVPSSSLGTQTYICNVNHKPSNTKVDKKVEPKSCGGGSGGGEVQLVQSGAEVKKPGASVKISCKTSGYTFTEYTIHWVKQASGKGLEWIGNINPNNGGTTYNQKFEDRATLTVDKSTSTAYMELSSLRSEDTAVYYCAAGWNFDYWGQGTTVTVSSGGGGSGGGGSGGGGSDIVMTQSPSSLSASVGDRVTITCKASQDVGTAVDWYQQKPGKAPKLLIYWASTRHTGVPDRFTGSGSGTDFTLTISSLQPEDFADYFCQQYNSYPLTFGGGTKLEIK
light: B1 light
notes: also called antiCD3Fab/anti-PSMAscFv

EC50 (read off the curve) [7]: ~0.2 µg/mL | binding result [8]: binds
B7: CTA03-02Fab/CTAT02-02scFv (bispecific antibody)
heavy: B1 heavy with D405E
light: B1 light with D57E
notes: also called CTA03Fab(VLD57E)/CTAT02scFv(VLD41E)
